Starred links: 1 amine or outer side, 2 acyl side, 3 side chain; linkers in the order of their positions; H or OH if unused. Positions of bridges follow the written chain, without caps; N, C: chain ends. Residues, ends and D or L forms follow the SMILES beside them. Primed or numbered codes have the meaning given here. No end group written: not given here. *: point of attachment. X1 = O=C(C[*:2])NCCNC(=O)c1ccc(C2=N[C@H](C(=O)[*:1])CS2)cc1; FITC = O=C1OC2(c3ccc(O)cc3Oc3cc(O)ccc32)c2ccc(NC(=S)*)cc21; cADT = 2-aryl-4,5-dihydrothiazole (ADT) linker; FITC′ = fluorescein isothiocyanate; ADT (ClAc-3) = not defined here
B1: chimeric human BCL-2 (residues 1-50 and 92-207, residues 35-50 replaced with residues 33-48 of BCL-XL) (domain or fragment, UniProt P10415 1-34, looked up)
chain: MAHAGRTGYDNREIVMKYIHYKLSQRGYEWDAGDNRTEAPEGTESEMETPVVHLTLRQAGDDFSRRYRRDFAEMSSQLHLTPFTARGRFATVVEELFRDGVNWGRIVAFFEFGGVMCVESVNREMSPLVDNIALWMTEYLNRHLHTWIQDNGGWDAFVELYGPSMR
modifications: biotin (biotinylated for SPR; site not stated)
notes: BCL-2, human, residues 1-34 of the chimera (internal loop 51-91 removed; residues 35-50 replaced with residues 33-48 of BCL-XL); BCL-XL, human, residues 33-48, in place of BCL-2 residues 35-50; BCL-2, human, residues 92-207; Biotinylated for SPR; used as such for crystals and fluorescence polarisation; also called BCL-2 WT; source: E. coli BL21 (DE3), purified (Ni-NTA, Superdex 75, RESOURCE Q, …)
B2: cp2 (peptide)
peptide: CPIRYEWDEFC
modifications: linker 1-11 via cADT (inferred)
notes: cyclic peptide from the second phage library CPXRYXWDXXC screened against BCL-2; they agree with I3, E6, E9 and F10 named in the text
B3: cp3 (peptide)
peptide: CPIRYPWDVEC
modifications: linker 1-11 via cADT (inferred)
notes: cyclic peptide from the second phage library CPXRYXWDXXC screened against BCL-XL; they agree with P6, V9 and E10 named in the text

Tests used:
Daudi cells = test: Cell viability assay (CellTiter-Glo), Daudi; type: cell-based; conditions: Homo sapiens, Daudi, 48 h, 48 h treatment, CellTiter-Glo
Protocol: (§1) The cell lines Jurkat (TIB-152), El4 (TIB-39), Daudi (ccl-213), RS4:11 (crl-1873), A549 (ccl-185), HepG2 (hb-8065) and PANC-1 (crl-1469) were purchased from ATCC (American Type Culture Collection), and MGC-803 (C6582) was purchased from Beyotime (https://www.beyotime.com/product/C6582.htm). […] Daudi and RS4:11 cells were cultured in RPMI-1640 medium (HyClone, SH30809.01) and 10% FBS (Gibco, 10099-141), whereas HepG2, MGC-803 and PANC-1 cells were cultured in MDEM (HyClone, SH30243.01). Cells were maintained at 37 °C under a humidified, 5% (v/v) CO2-containing atmosphere.
(§2) Cell viability was measured using CellTiter-Glo® 2.0 Reagent (Promega, G9242). […] After different inhibitors were added into serum-free medium and cultured for 4 h (RS4:11 for 6 h), FBS were supplemented to 10% and then incubated totally for 24 h or 48 h. Finally, the IC50 values were calculated based on measurements using a microplate reader (Thermo, Varioskan LUX). Statistical analysis was performed using software GraphPad Prism 7.0.

RS4:11 cells = test: Cell viability assay (CellTiter-Glo), RS4:11; type: cell-based; conditions: Homo sapiens, RS4-11; 48 h treatment, CellTiter-Glo; small-molecule inhibitors, cells marked (nM)
Outline: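 Compounds added in serum-free medium for 4 h (RS4:11: 6 h), then FBS brought to 10% and incubation continued to 24 h or 48 h total at 37 °C, 5% CO2. Viability by CellTiter-Glo 2.0 luminescence; IC50 calculated.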

El4 cells = test: Cell viability assay (CellTiter-Glo), El4; type: cell-based; conditions: Mus musculus, 48 h treatment, NO = no inhibition detected
Protocol: as §1, §2

[1] = parameters: method as in PMID 23410971; conditions: attributed to binding to BCL-XL; cited from earlier work
Jurkat cells [2] = test: Cell viability assay (CellTiter-Glo), Jurkat; type: cell-based; conditions: Homo sapiens, 48 h treatment, CellTiter-Glo
Protocol: as §1, §2

Jurkat cells [3] = type: cell-based
Protocol: Supplementary Figure 10 Functional mechanism of CPs. a. IC50 values of venetoclax against A549, MGC-803 and PANC-1 cells, measured after 48 h treatment by a CellTiter-Glo assay and calculated using Prism 7.0 by a nonlinear-fit method. Data are presented as mean ± s.d.; n= 6 biological replicates. b. Western blot detecting the protein expression levels of BCL-2 and BCL-XL in A549, MGC-803, Daudi and Jurkat cells. c-d. Western blot detecting the protein expression levels of BCL-2 and BCL-XL in El4 cells (c) and RS4:11 cells (d). e. Western blot verifying the protein expression levels of exogenous BCL-2 in normal A549 cells (control) and those stably overexpressing BCL-2 WT or G101V mutant. f. qPCR results testing the overexpression of BCL-2 WT or G101V mutant in A549 stable cells. Data are presented as mean ± s.d.; n= 6 biological replicates; one-way ANOVA with Dunnett’s multiple comparisons test. g. Cell viability assay of Jurkat cells after 48 h treatment with DMSO, cp1-FITC, cp6-FITC, respectively. P1 represents the percentage of active cells. h. FITC signal tests after 48 h treatment with DMSO, cp1-FITC, cp6-FITC, respectively. P4 represents cells with the FITC signal. i-k. Structures of cp1-TAT, cp2-TAT and cp3-TAT. […]

cp2-F = target: T1, cp2-F (linker 1-11 via ADT (ClAc-3) (inferred); reading uncertain; also: modified by ClAc-3, printed as CPIRYEWDEFCG{K(FITC)}); test: fluorescence polarisation; direct binding: 20 nM FITC-labelled peptide, protein 60-1000 nM, 1x PBS pH 7.4, room temperature, 10 min; conditions: both partners purified
T1 construct: also called cp2-FITC; source: synthetic peptide
T1 peptide: CPIRYEWDEFCGK(FITC′)

[4] = target: T2, human BCL-XL (residues 1-210, with 27-81 and 210-233 removed) (human, UniProt Q07817-1 1-209, 27-81 removed, biotin (biotinylated for SPR; site not stated)); test: SPR; Biacore T200; biotinylated proteins immobilised on a CAP sensor chip; peptides flowed in multiple cycles (25-12800 nM, depending on the peptides) at 30 uL/min; 10 mM PBS, 50 uM EDTA, 0.05% Tween-20, 25 °C; affinity fitting, 1:1 binding model; conditions: both partners purified
T2 construct: BCL-XL, human; printed as residues 1-210, with 27-81 and 210-233 removed (so the last residue is 209 or 210); source: E. coli BL21 (DE3), purified (Ni-NTA, Superdex 75, RESOURCE Q, Superdex 200)

BCL-w (residues 6-152) = target: T3, BCL-w (residues 6-152) (human, UniProt Q92843 6-152, biotin (biotinylated for SPR; site not stated)); test: as above; conditions: both partners purified
T3 construct: source: E. coli BL21 (DE3), purified (Ni-NTA, Superdex 75, RESOURCE Q, Superdex 200)
T3 sequence (looked up): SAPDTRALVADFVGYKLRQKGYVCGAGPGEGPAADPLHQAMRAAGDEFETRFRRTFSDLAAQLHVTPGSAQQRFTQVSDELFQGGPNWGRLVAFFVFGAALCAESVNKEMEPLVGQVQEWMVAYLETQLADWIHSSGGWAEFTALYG

BCL-2-D111A = target: T4, BCL-2-D111A (human, UniProt P10415 1-34; Q07817 33-48; P10415 92-207, D111A, biotin (biotinylated for SPR; site not stated)); test: as above; conditions: both partners purified
T4 construct: BCL-2, human, residues 1-34 of the chimera, as m6; BCL-XL, human, residues 33-48, in place of BCL-2 residues 35-50; BCL-2, human, residues 92-207; Chimera m6 with the point mutation D111A made by mutagenic PCR; also called BCL-2 D111A mutant; source: E. coli BL21 (DE3), purified (Ni-NTA, Superdex 75, RESOURCE Q, Superdex 200)

BCL-2-D103Y = target: T5, BCL-2-D103Y (human, UniProt P10415 1-34; Q07817 33-48; P10415 92-207, D103Y, biotin (biotinylated for SPR; site not stated)); test: as above; conditions: both partners purified
T5 construct: BCL-2, human, residues 1-34 of the chimera, as m6; BCL-XL, human, residues 33-48, in place of BCL-2 residues 35-50; BCL-2, human, residues 92-207; Chimera m6 with the clinical mutation D103Y; source: E. coli BL21 (DE3), purified (Ni-NTA, Superdex 75, RESOURCE Q, Superdex 200)

BCL-2-G101V = target: T6, BCL-2-G101V (human, UniProt P10415 1-34; Q07817 33-48; P10415 92-207, G101V, biotin (biotinylated for SPR; site not stated)); test: as above; conditions: both partners purified
T6 construct: BCL-2, human, residues 1-34 of the chimera, as m6; BCL-XL, human, residues 33-48, in place of BCL-2 residues 35-50; BCL-2, human, residues 92-207; Chimera m6 with the venetoclax-resistant clinical mutation G101V; also called BCL-2 G101V mutant; source: E. coli BL21 (DE3), purified (Ni-NTA, Superdex 75, RESOURCE Q, Superdex 200)

[5] = target: B1; test: as above; conditions: both partners purified
BCL-2-F104L = target: T7, BCL-2-F104L (human, UniProt P10415 1-34; Q07817 33-48; P10415 92-207, F104L, biotin (biotinylated for SPR; site not stated)); test: as above; conditions: both partners purified
T7 construct: BCL-2, human, residues 1-34 of the chimera, as m6; BCL-XL, human, residues 33-48, in place of BCL-2 residues 35-50; BCL-2, human, residues 92-207; Chimera m6 with F104L, a drug-resistant mutation found in a mouse model (residue number of the human protein); also called BCL-2 F104L mutant; source: E. coli BL21 (DE3), purified (Ni-NTA, Superdex 75, RESOURCE Q, Superdex 200)

T6 sequence (P10415 other isoform, or with tags, fused parts or gaps G101V | G101V | G101V G101V): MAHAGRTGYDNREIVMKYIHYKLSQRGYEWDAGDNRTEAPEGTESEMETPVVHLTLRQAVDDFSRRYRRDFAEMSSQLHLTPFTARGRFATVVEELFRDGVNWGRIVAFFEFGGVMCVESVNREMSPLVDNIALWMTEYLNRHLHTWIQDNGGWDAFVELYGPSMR
T5 sequence (P10415 other isoform, or with tags, fused parts or gaps D103Y | D103Y | D103Y D103Y): as the sequence (P10415 other isoform, or with tags, fused parts or gaps G101V | G101V | G101V G101V) above, with V60G, D62Y counted along it
T4 sequence (P10415 other isoform, or with tags, fused parts or gaps D111A | D111A | D111A D111A): as the sequence (P10415 other isoform, or with tags, fused parts or gaps G101V | G101V | G101V G101V) above, with V60G, D70A counted along it
T2 sequence (Q07817 other isoform, or with tags, fused parts or gaps 27-81 removed | 27-81 removed): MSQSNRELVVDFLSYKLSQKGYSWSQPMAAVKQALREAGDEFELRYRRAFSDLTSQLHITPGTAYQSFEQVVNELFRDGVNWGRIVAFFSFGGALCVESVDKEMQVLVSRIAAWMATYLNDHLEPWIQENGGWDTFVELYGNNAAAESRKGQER

Molecule | Penetration efficiency (FITC signal in cells) (Jurkat cells [3]) | Kd [4] | Kd (BCL-w (residues 6-152)) | Kd (BCL-2-D111A) | Kd (BCL-2-D103Y) | Kd (BCL-2-G101V) | Kd [5] | Kd (BCL-2-F104L) | further results
CC1(C)CCC(c2ccc(Cl)cc2)=C(CN2CCN(c3ccc(C(=O)NS(=O)(=O)c4ccc(N[C@H](CCN5CCOCC5)CSc5ccccc5)c(S(=O)(=O)C(F)(F)F)c4)cc3)CC2)C1 [ABT-263, navitoclax] |  |  |  |  |  |  |  |  | IC50 (Daudi cells): 13500 ± 1500 nM; IC50 (RS4:11 cells): 0.4 ± 0.1 nM; IC50 (El4 cells): > 100000 nM; Thrombocytopenia [1]: dose-dependent thrombocytopenia; IC50 (Jurkat cells [2]): 8500 ± 500 nM
C[C@@H]1NC(=O)[C@@H]2CCCN2C(=O)[C@@H]2CSC(=N2)c2ccc(cc2)C(=O)NCCNC(=O)CSC[C@@H](C(=O)NCC(=O)N[C@@H](CCCCNC(=S)Nc2ccc3c(c2)C(=O)OC32c3ccc(O)cc3Oc3cc(O)ccc32)C(N)=O)NC(=O)[C@H](CCC(=O)O)NC(=O)[C@H](Cc2ccc(O)cc2)NC(=O)[C@H](CC(=O)O)NC(=O)[C@H](Cc2c[nH]c3ccccc23)NC(=O)CNC(=O)[C@H](Cc2ccc(O)cc2)NC(=O)[C@H](CCCNC(=N)N)NC1=O [cp1-FITC] (PARYGWDYECGK(FITC)-NH2; linker N-10 via X1) | relatively low penetration efficiency |  |  |  |  |  |  |  | 
cp6-FITC: FITC-labeled cp6; CPARYFWDYKCGK(FITC) (CPARYFWDYKCGK(FITC′); not fully specified (bridges); printed as CPARYFWDYKCGK(FITC); cysteine pairing not given here) | relatively low penetration efficiency |  |  |  |  |  |  |  | 
B1 |  |  |  |  |  |  |  |  | binding result (cp2-F): binds
B2 |  | 730 nM | 1450 nM | 120 nM | 210 nM | 300 nM | 200 nM | 260 nM | 
B3 |  | 90 nM | 220 nM | 90 nM | 340 nM | 660 nM | 240 nM | 710 nM | 

— PMC10874388, “Cyclic peptides discriminate BCL-2 and its clinical mutants from BCL-XL by engaging a single-residue discrepancy” (Nature Communications, 2024)
